Experimental data reported in publication PMC7755189, “Phosphorylation of seryl-tRNA synthetase by ATM/ATR is essential for hypoxia-induced angiogenesis”.

Biological target: SerRS AA (Homo sapiens, UniProt P49591 1-514, S101A;S241A)
Experiment: EMSA; not attenuated relative to WT; EMSA: 20 mM Tris-HCl pH 8.0, 60 mM KCl, 5 mM MgCl2, 0.1 mg/mL BSA, 10 ng/uL poly(dG-dC), 1 mM DTT, 30 min, room temperature; 0.08 pmol labeled DNA; 5% native PAGE
Conditions: protein: recombinant; tags: C-terminal His6; chain copies: 2; label: 5'-32P; annealed oligonucleotides

SerRS AA, sequence (P49591 whole entry S101A/S241A): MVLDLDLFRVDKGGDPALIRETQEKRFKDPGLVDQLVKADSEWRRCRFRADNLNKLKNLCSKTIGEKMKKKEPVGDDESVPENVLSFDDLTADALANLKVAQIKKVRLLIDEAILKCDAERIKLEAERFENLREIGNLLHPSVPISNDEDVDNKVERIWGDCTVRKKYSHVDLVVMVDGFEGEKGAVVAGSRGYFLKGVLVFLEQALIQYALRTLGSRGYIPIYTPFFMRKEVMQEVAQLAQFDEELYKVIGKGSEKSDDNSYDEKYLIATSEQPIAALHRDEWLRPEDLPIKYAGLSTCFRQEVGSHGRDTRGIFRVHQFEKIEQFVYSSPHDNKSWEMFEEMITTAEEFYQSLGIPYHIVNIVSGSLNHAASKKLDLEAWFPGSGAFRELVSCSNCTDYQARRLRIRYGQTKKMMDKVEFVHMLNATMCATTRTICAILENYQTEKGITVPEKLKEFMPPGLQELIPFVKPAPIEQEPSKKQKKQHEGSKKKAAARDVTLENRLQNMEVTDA

B1: VEGFA promoter SerRS binding site 27 bp (dsDNA)
DNA 1: GGCGGGGCGGAGCCATGCGCCCCCCCC
DNA 2: GGGGGGGGCGCATGGCTCCGCCCCGCC
B1: binds.
